Article doi:10.1101/2023.07.10.548322

Assays:
Assay in all cases: SPR
[1] = target: alpha-synuclein (aSyn) WT (human, UniProt P37840 1-140)
[2] = target: aSyn dCterm (UniProt P37840 1-95, del96-140)
[3] = target: aSyn dNAC (UniProt P37840 1-140, del61-95)

Binder	Kd [1] [µM]	binding result [2]	binding result [3]	binding result [1]
UUAGGGUUAGGGUUAGGGUUAGGG (structured_RNA) [G4tr biotin]	3.63 ± 0.63	binds	binds	–
UUACCGUUACCGUUACCGUUACCG (ssRNA) [G4mt biotin]	–	–	–	no binding
